The test addresses human thrombopoietin receptor (human c-Mpl) (human) (UniProt P40238). Description: cell-based or functional assay.

Substance “PEG-rHuMGDF (Pegylated Recombinant Human Megakaryocyte Growth and Development Factor) (ligand)” registered a UT7/TPO (Max) of 100%.

Source of the values: patent publication WO2009041734A1.
